How the values were obtained:
TreR (TM0393) = target: T1, TreR (TM0393) (Thermotoga maritima, UniProt Q9WYM4); test: EMSA, loss of operator DNA binding; conditions: 50 nM protein, TM0392/treT operator DNA; pH 8.0, 150 mM KCl, 5 mM MgCl2, 60°C
T1 sequence (Q9WYM4 1-371): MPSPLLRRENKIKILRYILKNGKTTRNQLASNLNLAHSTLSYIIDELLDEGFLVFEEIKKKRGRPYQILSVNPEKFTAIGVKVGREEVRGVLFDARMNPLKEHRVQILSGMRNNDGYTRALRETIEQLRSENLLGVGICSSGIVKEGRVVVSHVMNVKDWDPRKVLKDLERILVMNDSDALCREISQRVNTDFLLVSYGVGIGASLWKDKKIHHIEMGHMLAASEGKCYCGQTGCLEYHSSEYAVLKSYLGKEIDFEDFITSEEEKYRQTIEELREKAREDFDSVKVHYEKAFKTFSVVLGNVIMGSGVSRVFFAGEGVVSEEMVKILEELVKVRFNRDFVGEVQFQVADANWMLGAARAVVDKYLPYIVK

XylR = target: T2, XylR (Thermotoga maritima MSB8, UniProt Q9WXW5 1-378); test: EMSA
T2 sequence: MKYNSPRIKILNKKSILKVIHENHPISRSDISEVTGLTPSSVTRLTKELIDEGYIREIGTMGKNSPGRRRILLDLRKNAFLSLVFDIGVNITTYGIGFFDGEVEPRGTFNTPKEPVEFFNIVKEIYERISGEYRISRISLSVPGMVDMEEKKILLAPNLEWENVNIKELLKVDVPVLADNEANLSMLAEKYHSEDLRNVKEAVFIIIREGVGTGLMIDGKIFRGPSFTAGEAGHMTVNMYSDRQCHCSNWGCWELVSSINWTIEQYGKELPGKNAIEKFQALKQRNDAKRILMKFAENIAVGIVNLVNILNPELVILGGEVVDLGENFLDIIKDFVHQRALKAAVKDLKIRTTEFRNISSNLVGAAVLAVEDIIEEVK

TreR = target: T3, TreR (Thermotoga maritima, UniProt Q9WYM4 1-371); test: EMSA
T3 sequence: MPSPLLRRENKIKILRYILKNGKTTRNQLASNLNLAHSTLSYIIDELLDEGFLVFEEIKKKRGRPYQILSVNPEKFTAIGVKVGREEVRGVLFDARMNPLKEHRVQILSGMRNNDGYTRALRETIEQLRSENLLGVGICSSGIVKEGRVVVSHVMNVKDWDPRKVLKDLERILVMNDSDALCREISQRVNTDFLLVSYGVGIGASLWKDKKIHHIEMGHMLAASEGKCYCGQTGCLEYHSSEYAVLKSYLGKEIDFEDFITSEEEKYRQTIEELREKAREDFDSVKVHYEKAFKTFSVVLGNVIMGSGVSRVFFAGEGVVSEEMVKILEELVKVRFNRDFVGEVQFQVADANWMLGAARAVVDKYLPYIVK

ChiR = target: T4, ChiR (Thermotoga maritima, UniProt Q9WZR5 1-355); test: EMSA
T4 sequence: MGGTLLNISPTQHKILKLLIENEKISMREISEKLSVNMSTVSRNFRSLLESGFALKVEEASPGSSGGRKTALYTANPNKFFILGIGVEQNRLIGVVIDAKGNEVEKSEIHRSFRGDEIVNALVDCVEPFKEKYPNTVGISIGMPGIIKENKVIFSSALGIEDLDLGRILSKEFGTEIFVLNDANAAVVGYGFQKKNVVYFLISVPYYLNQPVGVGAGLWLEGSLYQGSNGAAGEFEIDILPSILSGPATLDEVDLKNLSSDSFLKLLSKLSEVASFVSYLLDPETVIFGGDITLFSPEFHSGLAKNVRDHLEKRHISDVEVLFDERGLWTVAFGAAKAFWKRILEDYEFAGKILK

BglR = target: T5, BglR (Thermotoga maritima MSB8, UniProt Q9WXN9 1-381); test: EMSA
T5 sequence: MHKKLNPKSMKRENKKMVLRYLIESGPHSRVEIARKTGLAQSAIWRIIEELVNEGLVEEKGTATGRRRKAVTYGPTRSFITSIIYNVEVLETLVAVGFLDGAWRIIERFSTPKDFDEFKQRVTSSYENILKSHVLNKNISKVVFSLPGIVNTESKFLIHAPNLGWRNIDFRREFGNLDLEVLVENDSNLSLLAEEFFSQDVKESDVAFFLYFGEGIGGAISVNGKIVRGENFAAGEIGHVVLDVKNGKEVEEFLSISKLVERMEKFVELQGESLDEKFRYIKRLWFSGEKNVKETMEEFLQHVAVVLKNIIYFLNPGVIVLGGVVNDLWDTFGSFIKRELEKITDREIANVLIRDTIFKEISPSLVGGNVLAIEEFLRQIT

IolR = target: T6, IolR (Thermotoga maritima MSB8, UniProt Q9WYP2 1-383); test: EMSA
T6 sequence: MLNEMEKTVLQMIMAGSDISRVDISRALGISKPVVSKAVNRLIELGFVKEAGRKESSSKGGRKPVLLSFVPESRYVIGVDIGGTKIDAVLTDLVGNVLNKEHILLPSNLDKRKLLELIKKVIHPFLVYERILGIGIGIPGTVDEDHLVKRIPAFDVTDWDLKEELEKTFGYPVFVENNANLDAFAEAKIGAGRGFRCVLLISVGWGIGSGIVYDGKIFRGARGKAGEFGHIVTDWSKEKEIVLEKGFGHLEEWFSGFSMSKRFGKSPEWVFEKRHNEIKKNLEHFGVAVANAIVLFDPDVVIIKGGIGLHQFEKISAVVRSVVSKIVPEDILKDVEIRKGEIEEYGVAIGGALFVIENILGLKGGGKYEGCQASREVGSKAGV

ManR = target: T7, ManR (Thermotoga maritima, UniProt Q9X0V1 1-368); test: EMSA
T7 sequence: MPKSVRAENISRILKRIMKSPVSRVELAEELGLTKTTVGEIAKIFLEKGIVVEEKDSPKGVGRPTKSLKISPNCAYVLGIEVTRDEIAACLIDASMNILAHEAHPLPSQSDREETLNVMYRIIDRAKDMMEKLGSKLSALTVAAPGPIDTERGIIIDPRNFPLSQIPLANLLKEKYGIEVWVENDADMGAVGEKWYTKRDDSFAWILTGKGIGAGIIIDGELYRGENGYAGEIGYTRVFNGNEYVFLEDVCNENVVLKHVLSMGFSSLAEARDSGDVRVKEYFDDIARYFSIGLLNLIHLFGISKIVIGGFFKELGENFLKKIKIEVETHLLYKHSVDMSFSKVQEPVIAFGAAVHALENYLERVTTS

For `OC[C@H]1O[C@H](O[C@H]2O[C@H](CO)[C@@H](O)[C@H](O)[C@H]2O)[C@H](O)[C@@H](O)[C@@H]1O` [Trehalose], the “Tested potential ligands / (Sugar)” value (TreR (TM0393)) was 0.2 mM.

B1: xloE site (dsDNA)
DNA 1: AGATTTACATTAAAATATTTCCCGAAAGGAAAAAATATAACATACAATC
DNA 2: GATTGTATGTTATATTTTTTCCTTTCGGGAAATATTTTAATGTAAATCT
In the case of B1, the binding signal (XylR) is reported as 5 nM.

B2: treT site (dsDNA)
DNA 1: TGATTAATTGTGTATTAATTCAAGTTACGAATAAATTTGGGAGGGATCA
DNA 2: TGATCCCTCCCAAATTTATTCGTAACTTGAATTAATACACAATTAATCA
B2 gave a binding signal (TreR) of 10 nM.

B3: xylA site (dsDNA)
DNA 1: CCCAAGATTTTATATAATTGATTGATAGAAAAAATTTAGGGAGGTGTTT
DNA 2: AAACACCTCCCTAAATTTTTTCTATCAATCAATTATATAAAATCTTGGG
B3 showed a binding signal (XylR) of 5 nM.

B4: xylR site (dsDNA)
DNA 1: ACCTTGATTTTAAATTATTTCCTGCATATAATTAATGTGAACATAATAT
DNA 2: ATATTATGTTCACATTAATTATATGCAGGAAATAATTTAAAATCAAGGT
B4 was tested, and the binding signal (XylR) was 2.5 nM.

B5: xynA site (dsDNA)
DNA 1: TCGAAGAAGCTCAATTTTTTCTTTACAAAAAATAACTTTAGGGTGATAT
DNA 2: ATATCACCCTAAAGTTATTTTTTGTAAAGAAAAAATTGAGCTTCTTCGA
Work on B5 yielded a binding signal (XylR) of 2.5 nM.

B6: chiR site (dsDNA)
DNA 1: ACAATAATTTATGAAGTTGTTTGCGGCATGCAACTAACTGATGGGAGGG
DNA 2: CCCTCCCATCAGTTAGTTGCATGCCGCAAACAACTTCATAAATTATTGT
In the case of B6, the binding signal (ChiR) is reported as 0.5 nM.

B7: bglR site (dsDNA)
DNA 1: GAGTCATATCGTTATAATTTCTTTCTGAGGAAGATAGATAAGAAGCAGG
DNA 2: CCTGCTTCTTATCTATCTTCCTCAGAAAGAAATTATAACGATATGACTC
B7 was tested, and the binding signal (BglR) was 2.5 nM.

B8: iolR site (dsDNA)
DNA 1: TAGTTGACAAATTGATTATAATGTGGTTGGTTAGTTAACGATAACAAACGAAAGGAATGGAAAAATGCTGAAT
DNA 2: ATTCAGCATTTTTCCATTCCTTTCGTTTGTTATCGTTAACTAACCAACCACATTATAATCAATTTGTCAACTA
Molecule B8 has a binding signal (IolR) of 2.5 nM.

B9: manB site (dsDNA)
DNA 1: CGATGACCCTGATAAATAAGTAAAGTTTACTAATTAACGGGAGGTATCG
DNA 2: CGATACCTCCCGTTAATTAGTAAACTTTACTTATTTATCAGGGTCATCG
With B9 the binding signal (ManR) was 10 nM.

B10: mtpE site (dsDNA)
DNA 1: TAACATAATCTTTTTATTAGTAAGTGTTATTTATTAACATCCATTTAAA
DNA 2: TTTAAATGGATGTTAATAAATAACACTTACTAATAAAAAGATTATGTTA
Molecule B10 has a binding signal (ManR) of 25 nM.
